In patent publication US20160060347A1 (MorphoSys, published 2016):
Changes are numbered by the printed parent chain.

T1: human CXCR2 (human, UniProt P25025 1-360)
T1 construct: Expressed on Flp-In CHO cells (FACS, Fab-ZAP, ADCC, CDC) or on bought PathHunter CHO cells (beta-arrestin assay); the construct in the PathHunter cells is not described; also called chemokine receptor CXCR2; CXCR2 CHO Flp-In cells
T1 sequence: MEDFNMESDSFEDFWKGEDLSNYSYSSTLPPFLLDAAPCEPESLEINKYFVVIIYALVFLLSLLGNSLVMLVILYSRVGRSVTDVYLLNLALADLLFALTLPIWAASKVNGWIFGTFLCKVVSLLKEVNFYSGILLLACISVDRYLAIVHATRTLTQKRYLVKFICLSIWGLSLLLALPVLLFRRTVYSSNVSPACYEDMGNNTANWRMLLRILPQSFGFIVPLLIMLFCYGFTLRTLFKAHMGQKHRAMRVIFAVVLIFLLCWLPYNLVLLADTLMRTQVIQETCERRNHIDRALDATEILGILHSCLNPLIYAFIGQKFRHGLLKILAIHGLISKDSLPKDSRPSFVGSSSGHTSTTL

B1: CX2-Mab #3.2 (antibody, IgG1, V domains shown)
VH: QVQLLESGGGLVQPGGSLRLSCAASGFTFSSYAMSWVRQAPGKGLEWVSLISQGGLTYYADSVKGRFTISRDNSKNTLYLQMNSLRAEDTAVYYCARGRVGYAFDYWGQGTLVTVSS
VL: DIVLTQPPSVSGAPGQRVTISCSGSSSNIGVNYVNWYQQLPGTAPKLLIYSNNQRPSGVPDRFSGSKSGTSASLAITGLQAEDEADYYCQSRASGFYSVVFGGGTKLTVLG
B2: CX2-Mab #4.1 (antibody, IgG1, V domains shown)
VH: QVQLVQSGAEVKKPGSSVKVSCKASGGTFSSYAISWVRQAPGQGLEWMGHIPPNEGTPWYAQKFQGRVTITADESTSTAYMELSSLRSEDTAVYYCARGYGFDVWGQGTLVTVSS
VL: DIVLTQPPSVSGAPGQRVTISCSGSSSNIGVNIVNWYQQLPGTAPKLLIYSTSNRPSGVPDRFSGSKSGTSASLAITGLQAEDEADYYCATRDGISKSVVFGGGTKLTVLG
B3: CX2-Mab #4.2 (antibody, IgG1, V domains shown)
VH: QVQLLESGGGLVQPGGSLRLSCAASGFTFSSNGMSWVRQAPGKGLEWVSAISSSGSKTYYADSVKGRFTISRDNSKNTLYLQMNSLRAEDTAVYYCARGYGFDVWGQGTLVTVSS
VL: B2 VL with A90G, R92Y, G94V, I95Q, K97H, S98Q, V99M
B4: CX2-Mab #1.1 (antibody, IgG1, V domains shown)
VH: QVQLVQSGAEVKKPGSSVKVSCKASGGTFSSYAISWVRQAPGQGLEWMGGIIPIVGEAKYAQKFQGRVTITADESTSTAYMELSSLRSEDTAVYYCARDSSGYDGYYAFAYWGQGTQVTVSS
VL: DIVLTQPPSVSGAPGQRGTISCSGSSSNIGSSSVNWYQQLPGTAPKLLIYRNNQRPSGVPDRFSGSKSGTSASLAITGLQAEDEADYYCGSTDMSTNSIVFGGGTKLTVLG
B5: CX2-Mab #1.3 (antibody, IgG1, V domains shown)
VH: B4 VH
VL: DIVLTQPPSVSGAPGQRGTISCSGSSSNIGSSSVNWYQQLPGTAPKLLIYRNNQRPSGVPDRFSGSKSGTSASLAITGLQAEDEADYYCAVTTKPQGIVFGGGTKLTVLG
B6: CX2-Mab #1.6 (antibody, IgG1, V domains shown)
VH: B4 VH
VL: B4 VL with G90A, T92R, M94H, S95F, T96S, N97H, S98G, I99L
B7: CX2-Mab #1.4 (antibody, IgG1, V domains shown)
VH: B4 VH
VL: B5 VL with V91S, T93D, K94I, P95S, Q96R, G97V
B8: CX2-Mab #14 (Fab, V domains shown)
VH: QVQLQQSGPGLVKPSQTLSLTCAISGDSVSSNSAAWNWIRQSPSRGLEWLGRIYYRSKWYNDYAVSVKSRITINPDTSKNQFSLQLNSVTPEDTAVYYCARDVPYYSDYSHYVYYYGAWFDVWGQGTLVTVSS
VL: DIELTQPPSVSVSPGQTASITCSGDSIPYNYAHWYQQKPGQAPVLVIYDDSDRPSGIPERFSGSNSGNTATLTISGTQAEDEADYYCGAYDKKWVVFGGGTKLTVLG
B9: CX2-Mab #15 (Fab, V domains shown)
VH: EVQLLESGGGLVQPGGSLRLSCAASGFTFSRYWMSWVRQAPGKGLEWVSVISYSGSETYYADSVKGRFTISRDNSKNTLYLQMNSLRAEDTAVYYCARGRAYGYFDPWGQGTLVTVSS
VL: DIVLTQPPSVSGAPGQRVTISCSGSSSNIGKKTVSWYQQLPGTAPKLLIYRNNQRPSGVPDRFSGSKSGTSASLAITGLQAEDEADYYCGSTTSSHLYVFGGGTKLTVLG
B10: CX2-Mab #10 (Fab, V domains shown)
VH: B9 VH
VL: DIVLTQPPSVSGAPGQRVTISCSGSSSNIGKKTVSWYQQLPGTAPKLLIYRNNQRPSGVPDRFSGSKSGTSASLAITGLQAEDEADYYCSSTTSSSRSVVFGGGTKLTVLG
B11: CX2-Mab #17 (Fab, V domains shown)
VH: B9 VH with R31S, W33S, V50Y, Y53S, S54A, E57N, P107Y
VL: DIVLTQPPSVSGAPGQRVTISCSGSSSNIGSNTVYWYQQLPGTAPKLLISSNTKRPSGVPDRFSGSKSGTSASLAITGLQAEDEADYYCQVTDFRLHHVVFGGGTKLTVLG
B12: CX2-Mab #16 (Fab, V domains shown)
VH: B9 VH
VL: B9 VL with T93G, S94Y, S95R, H96G
B13: CX2-Mab #12 (Fab, V domains shown)
VH: B9 VH with E1Q
VL: B10 VL with S90Q, T93D, S95T, S96H, S98M, V99A
B14: CX2-Mab #18 (Fab, V domains shown)
VH: EVQLLESGGGLVQPGGSLRLSCAASGFTFSRYAMSWVRQAPGKGLEWVSVISSDGGTTYYADSVKGRFTISRDNSKNTLYLQMNSLRAEDTAVYYCARIFSYALDYWGQGTLVTVSS
VL: DIVLTQPPSVSGAPGQRVTISCSGSSSNIGSYYVNWYQQLPGTAPKLLIYRNSKRPSGVPDRFSGSKSGTSASLAITGLQAEDEADYYCSSYDAHSDSVVFGGGTKLTVLG
B15: CX2-Mab #19 (Fab, V domains shown)
VH: EVQLVQSGAEVKKPGESLKISCKGSGYSFTSYWISWVRQMPGKGLEWMGIIDPANSYTRYSPSFQGQVTISADKSISTAYLQWSSLKASDTAMYYCARVERRPRYYGSNYYGMDVWGQGTLVTVSS
VL: B14 VL with Y32N, R51G, K54N, S91V, Y92R, A94S, H95E, S96G, D97R, S98Y
B16: CX2-Mab #11 (Fab, V domains shown)
VH: QVQLVQSGAEVKKPGSSVKVSCKASGGTFTDYAISWVRQAPGQGLEWMGGIIPIFGTANYAQKFQGRVTITADESTSTAYMELSSLRSEDTAVYYCARHSYSFDYWGQGTLVTVSS
VL: DIELTQPPSVSVSPGQTASITCSGDNLRKKYAYWYQQKPGQAPVLVIGSKSNRPSGIPERFSGSNSGNTATLTISGTQAEDEADYYCQSYDSGRVVFGGGTKLTVLG

What follows are binders tested against T1, human CXCR2 (assay: FACS, CXCR2 CHO Flp-In cells, IgG1).
Experimental: (§1) Human CXCR2-expressing Flp-In™ CHO cells were harvested at ˜80% confluence washed once with PBS (Gibco, Cat #14190-094) and detached using Versene (Invitrogen, Cat #15040-033). Subsequently, cells were counted and centrifuged at 250×g for 5 min at 4° C. Afterwards, cells were diluted in Superblock (Thermo Fisher Perbio Science, Cat #37515) to a cell concentration of 2E+05-1E+06/mL and 100 μL/well were transferred to 96-well microtiter plate (Nunc, Cat#163320). Cells were once centrifuged, supernatant discarded and antibodies added at 1 μg/mL (unless stated otherwise), incubated for 1 h at 4° C. and washed twice with FACS buffer (PBS/3% FCS/0.02% NaN3). Binding of anti-CXCR2 antibodies was detected by incubation of Phycoerythrin-conjugated anti-human IgG (Dianova, Cat #109-116-097) for 1 h at 4° C. Samples were subsequently measured using FACS Array (Becton Dickinson).

binding result	Binder
binds	B1
binds	B2
binds	B3
binds	B4
binds	B5
binds	B6
binds	B7

Each binder was assayed against T1, human CXCR2 (assay: FACS, CXCR2 CHO Flp-In cells, Fab).
Experimental: as §1

binding result	Binder
binds	B8
binds	B9
binds	B10
binds	B11
binds	B12
binds	B13
binds	B14
binds	B15
binds	B16

What follows are binders tested against T2, N-terminal peptide aa1-48, BSA-coupled (human; bovine, coupled to carrier protein BSA; C-terminal cysteine introduced to enable coupling) (assay: ELISA, coated peptide-BSA, Fab).
T2 construct: also called CXCR2 aa1-48 BSA
Experimental: (§2) 384-well Maxisorp plates (Nunc; Cat. #460518) were coated with respective CXCR2 and control peptides coupled either to BSA or Transferrin (TRF) at 1-5 μg/mL and incubated o/n at 4° C. […] After three washing steps, antibodies were added at 5-10 μg/mL and titrated in some experiments. Antibodies were incubated 1 h at room temperature and plates were subsequently washed. Binding of anti-CXCR2 antibodies was detected by using alkaline phosphatase-conjugated anti-human IgG, (Dianova, Cat #109-055-097). AttoPhos fluorescence substrate (Roche, Cat #1484281) was added according to instructions of the manufacturer and fluorescence was measured (excitation at 430 nm, emission at 535 nm) using a microplate reader.

binding result	Binder
binds	B8
binds	B9
binds	B10
binds	B11
binds	B12
binds	B13
binds	B14
binds	B15
binds	B16

Each binder was assayed against T3, hu_CXCR2_N-term (1-17)-BSA (human; bovine, coupled to carrier protein BSA; C-terminal cysteine introduced to enable coupling) (assay: ELISA, coated peptide-BSA, Fab).
T3 construct: Synthetic linear peptide chemically coupled to the carrier; also called CXCR2_aa1-17_BSA; CXCR2 aa1-17 BSA
T3 sequence (P02769 25-607 limits assumed): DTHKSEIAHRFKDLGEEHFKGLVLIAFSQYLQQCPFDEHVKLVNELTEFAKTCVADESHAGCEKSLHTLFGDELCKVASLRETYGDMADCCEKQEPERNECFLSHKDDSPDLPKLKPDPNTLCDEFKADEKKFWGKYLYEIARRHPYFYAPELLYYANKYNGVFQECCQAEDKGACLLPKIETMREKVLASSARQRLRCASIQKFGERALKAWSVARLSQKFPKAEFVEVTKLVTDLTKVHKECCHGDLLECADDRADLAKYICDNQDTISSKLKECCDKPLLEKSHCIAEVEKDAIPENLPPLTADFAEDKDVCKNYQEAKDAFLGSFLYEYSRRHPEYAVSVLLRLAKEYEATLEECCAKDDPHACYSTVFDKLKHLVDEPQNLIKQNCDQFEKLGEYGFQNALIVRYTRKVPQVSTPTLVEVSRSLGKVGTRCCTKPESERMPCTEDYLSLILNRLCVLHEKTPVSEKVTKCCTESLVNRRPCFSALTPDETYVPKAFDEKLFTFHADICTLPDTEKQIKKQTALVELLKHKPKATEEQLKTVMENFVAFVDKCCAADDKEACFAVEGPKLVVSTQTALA
Experimental: as §2

binding result	Binder
binds	B9
binds	B10
binds	B11
binds	B12
binds	B13
binds	B14
binds	B15

What follows are binders tested against T4, ECL3 peptide aa273-295, BSA-coupled (human; bovine, coupled to carrier protein BSA; C-terminal cysteine introduced to enable coupling) (assay: ELISA, coated peptide-BSA, Fab).
T4 construct: also called CXCR2 aa273-295 BSA; peptides representing the extracellular domain 3
T4 sequence (peptide, as listed by the source limits assumed, chain 1 of 2): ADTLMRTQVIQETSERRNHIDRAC
T4 sequence (P02769 25-607 limits assumed, chain 2 of 2): as the sequence (P02769 25-607 limits assumed) above
Experimental: as §2

binding result	Binder
binds	B9
binds	B10
binds	B11
binds	B12
binds	B13
binds	B14
binds	B15

What follows are binders tested against T2, N-terminal peptide aa1-48, BSA-coupled (assay: ELISA, coated peptide-BSA, IgG1).
Experimental: as §2
Target sequence in this assay (P02769 25-607 limits assumed): as above

binding result	Binder
binds	B1
binds	B2
binds	B3
binds	B4
binds	B5
binds	B6
binds	B7

Each binder was assayed against T3, hu_CXCR2_N-term (1-17)-BSA (assay: ELISA, coated peptide-BSA, IgG1).
Experimental: as §2

binding result	Binder
binds	B1
binds	B2
binds	B3
binds	B4
binds	B5
binds	B6
binds	B7
